The record followed here is patent US20050154189A1 (MAXYGEN, published 2005).

Where a chain is given by its changes, count along the chain named.

For this assay, the target named is T1, Soluble CD28-Ig (human, UniProt P10747 19-152, biotin-conjugated (NHS-biotin) in the labelled-ligand FACS assays).
T1 construct: extracellular domain; Bought from R&D Systems; also called sCD28-Ig; CD28-Ig Fc; not shown: Fc portion of human IgG1
Description: two-colour FACS profile on transfected cells; score of preference for CD28-Ig over CTLA-4-Ig vs WT hB7-1.

B1: Round 2 CD28A2-5 (ligand)
chain: ITPKSVTKRVKETVMLSCDYNTSTEELTSLRIYWQKDSKMVLAILPGKVQVWPEYKNRTITDMNDNPRIVILALRLSDSGTYTCVIQKPDLKGAYKLEHLASVRLMIRADFPVPSITDIGHPAPNVKRIRCSASGGFPEPRLAWMEDGEELNAVNTTVDQDLDTELYSVSSELDFNMTSNHSFLCLVKYGDLTVSQTFYWQESKPTPSANQHLTWTIIIPVSAFGISVIIAVILTCLTCRNAAIRRQRRENEGKCKVLSVSIGTKLKFNR
As for B1, the “Binding Score” value came to 0.

B2: Round 2 CD28D2-3 (ligand)
chain: ITPKSVTKRVKETVMLSCDYNTSTEELTSLRIYWQKDSKMVLAILPGKVQVWPEYKNRTITDMNDNPRIVIQALRLSDSGTYTCVIQKPVLKGAYKLEHLASVRLMIRADFPVPTDLGNPSPNIRRLICSTSGGFPRPHLYWLENGEELNATNTTVSQDPGTELYMISSELDFNVTNNHSIVCLIKYGELSVSQIFPWSKPKQEPPIDQLPFWVIIPVSGALVLTAVVLYCLACRHVARWKRTRRNEETVGTERLSPIYLGSAQSSG
In the case of B2, the “Binding Score” value turned out to be 1.

B3: Round 2 CD28D5-6 (ligand)
chain: ITPKSVTKRVKETVMLSCDYSTSTEELTSLRIYWQKDSKMVLAILPGKVQVWPEYKNRTITDMNDNPRIVILALRLSDSGTYTCVIQKPVLKGAYKLEHLTSVRLMIRADFPVPTINDLGNPSPNIRRLICSTSGGFPRPHLYWLENGEELNATNTTLSQDPETKLYMISSELDFNMTSNHSFLCLVKYGDLTVSQSFYWQESKPTPSANQHLTWTIIIPVSAFGISVIIAVILTCLTCRNAAIRRQRRENEVEMQSCSQSP
With B3, the “Binding Score” value is 0.

B4: Round 2 CD28E8-6 (ligand)
chain: B3 chain with S21N, L158V, M177T, S197T
As for B4, the “Binding Score” value was 0.

B5: Round 2 CD28F3-1 (ligand)
chain: B3 chain with S21N, V90D, E149K, S197T
In the case of B5, the “Binding Score” value worked out at 0.

B6: Round 2 CD28E2-5* (ligand)
chain: B3 chain with I1T, S21N, L76P, T101A, S197T
On to B6, for which the “Binding Score” value was found to be 0.

B7: Round 2 CD28D12-5 (ligand)
chain: ITPKSVTKRVKETVMLSCDYSTSTEELTSLRIYWQKDSKMVLAILPGKVQVWPEYKNRTITDMNDNPRIVILALRLSDSGTYTCVIQKPVLKGAYKLEHLASVRLMIRADFPVPSITDIGHPAPNVKRIRCSASGDFPEPRLAWMEDGEELNAVNTTVLDTELYSVSSELDFNVTNNHSIVCLIKYGELSVSQIFPWSKPKQEPPIDQLPFWVIIPVSGALVLTAVVLYCLACRHVARWKRTRRNEETVGTERLSPIYLGSAQPSG
Consider B7, for which the “Binding Score” value was 2.

B8: Round 2 CD28C2-4 (ligand)
chain: GISQVTKSVKEMAALSCDYNISIDELARMRIYWQKDQQMVLSIISGQVEVWPEYKNRTITDMNDNPRIVILALRLSDSGTYTCVIQKPVLKGAYKPEHLASVRLMIRADFPVPTINDLGNPSPNIRRLICSTSGGFPRPHLYWLENGEELNATNTTLSQDPETKLYMISSELDFNMTSNHSFLCLVKYGDLTVSQTFYWQESKPTPSANQHLTWTIIIPVSAFGISVIIAVILTCLTCRNAAIRRQRRENEVEMQSCSQSP
Regarding B8, the “Binding Score” value was 1.

B9: Round 2 CD28B6-6 (ligand)
chain: ITPKSVTKRVKETVMLSCDYSTSTEELTSLRIYWQKDSKMVLAILPGKVQVWPEYKNRTITDMNDNPRIVILALRLSDKGTYTCVIQKPVLKGAYKLEHLTSVTLSIRADFPVPSITDIGHPAPNVKRIRCSASGGFPEPRLAWMEDGEELNAVNTTVDQDLDTELYSVSSELDFNATNNHSIVCLIKYGELSVSQIFPWSKPKQEPPIDQLPFWVIVPVSGALVLTAVVLYCLACRHVAR
On to B9, for which the “Binding Score” value was found to be 1.

B10: Round 2 CD28BP-8 (ligand)
chain: ITPKSVTKRVKETVMLSCDYNTSTEELTSLRIYWQKDSKMVLAILPGKVQVWPEYKNRTITDMNDNPRIVILALRLSDSGTYTCVIQKPVLKGAYKLEHLASVRLMIRADFPVPSITDIGHPAPNVKRIRCSASGGFPEPRLAWMEDGEELNAVNTTVDQDLDTELYSVSSELDSNVTNNHSIVCLIKYGELSVSQIFPWSKPKQEPPIDQLPFWVIIPVSGALVLTAVVLYCLACRHVARWKRTRRNEETVGTERLSPIYLGSAQSSG
notes: also called clone CD28BP-8
With B10, the “Binding Score” value was determined as 2.

B11: Round 2 CD28F10-2 (ligand)
chain: B10 chain with V90D, A101T, G136D, S175F
Take B11: the “Binding Score” value was determined as 1.

B12: Round 2 CD28C7-3 (ligand)
chain: B10 chain with N21S, V90D, A101T, G136D, S175F
Turning to B12, the “Binding Score” value stood at 1.

B13: Round 2 CD28F12-5* (ligand)
chain: B10 chain with V90D, G136D, S175F
As for B13, the “Binding Score” value was found to be 1.

B14: Round 2 CD28G1-9 (ligand)
chain: B10 chain with A101T, S175F
In the case of B14, the “Binding Score” value turned out to be 1.

B15: Round 2 CD28D11-1 (ligand)
chain: ITPKSVTKRVKETVMLSCDYNTSTEELTSLRIYWQKDSKMVLAILPGKVQVWPEYKNRTITDMNDNPRIVILALRLSDSGTYTCVVQKNENGSFRREHLTSVTLSIRADFPVPSITDIGHPAPNVKRIRCSASGDFPEPRLAWMEDGEELNAVNTTVDQDLDTELYSVSSELDFNVTNNHSIVCLIKYGELSVSQIFPWSKPKQEPPIDQLPFWVIILVSGALVLTAVVLYCLACRHVARWKRTRRNEETVGTERLSPIYLGSAQSSG
For B15, the “Binding Score” value was found to be 2.

B16: Round 2 CD28D10-4 (ligand)
chain: SGITPKSVTKRVKETVMLSCDYNTSTEELTSLRIYWQKDSKMVLAILPGKVQVWPEYKNRTITDMNDNPRIVILALRLSDKGTYTCVVQKNENGSFRREHLTSVTLSIRADFPVPSITDIGHPAPNVKRIRCSASGGFPEPRLAWMEDGEELNAVNTTVDQDLDTELYSVSSELDFNVTNNHSIVCLIKYGELSVSQIFPWSKPKQEPPIDQLPFWVIIPVSGALVLTAVVLYCLACRHVARWKRTRRNEETVGTERLSPIYLGSAQSSG
For the molecule B16, the “Binding Score” value came out at 0.

B17: Round 2 CD28BP-11 (ligand)
chain: B16 chain with T24A
On to B17, for which the “Binding Score” value came to 2.

B18: Round 2 CD28BP-17 (ligand)
chain: SGITPKSVTKRVKETVMLSCDYSTSTEELTSLRIYWQKDSKMVLAILPGKVQVWPEYKNRTFPDIINNLSLMILALRLSDKGTYTCVVQKNENGSFRREHLTSVTLSIRADFPVPSITDIGHPAPNVKRIRCSASGDFPEPRLAWMEDGEELNAVNTTVDQDLDTELYSVSSELDFNVTNNHSIVCLIKYGELSVSQIFPWSKPKQEPPIDQLPFWVIIPVSGALVLTVVVLYCLACRHVARWKRTRRNEETVGTERLSPIYLGSAQSSG
On to B18, for which the “Binding Score” value came to 2.

B19: Round 2 CD28G1-5 (ligand)
chain: B18 chain with P115S, D137G, V229A
Regarding B19, the “Binding Score” value amounted to 1.

B20: Round 2 CD28A8-6 (ligand)
chain: B16 chain with L18P, N23S, K81S
In the case of B20, the “Binding Score” value was found to be 1.

B21: Round 2 CD28F3-5 (ligand)
chain: B16 chain with K81S
As to B21, the “Binding Score” value came to 0.

B22: Round 2 CD28BP-14 (ligand)
chain: GISQVTKSVKEMAALSCDYNISIDELARMRIYWQKDQQMVLSIISGQVEVWPEYKNRTITDMNDNPRIVILALRLSDSGTYTCVIQKPVLKGAYKLEHLASVRLMIRADFPVPTINDLGNPSPNIRRLICSTSGGFPRPHLYWLENGEELNATNTTVSQDPGTELYMISSELDFNVTNNHSIVCLIKYGELSVSQIFPWSKPKQEPPIDQLPFWVIIPVSGALVLTAVVLYCLACRHVARWKRTRRNEETVGTERLSPIYLGSAQSSG
In the case of B22, the “Binding Score” value was 2.

B23: Round 2 CD28H6-6 (ligand)
chain: ITPKSVTKRVKETVMLSCDYSTSTEELTSLRIYWQKDSKMVLAILPGKVQVWPEYKNRTITDMNDNPRIVILALRLSDSGTYTCVIQKPVLKGAYKLEHLASVRLMIRADFPVPTINDLGNPSPNIRRLICSGFPRPHLYWLENGEELNATNTTVSQDPGTELYMISSELDFNVTNNHSIVCLIKYGELSVSQIFPWSKPKQEPPIDQLPFWVIIPVSGALVLTAVVLYCLACRHVARWKRTRRNEETVGTERLSPIYLGSAQSSG
For B23, the “Binding Score” value is 1.
